Assay results reported in patent US20040106105A1 (published 2004).
“And” between values parts separate entries of the source, which are not always exact repeats. Equal values may be shown once.

B1: Fab S8 (Fab, V domains shown)
VH: LESGGGLVKPGGSLRLSCAASGFTFSSYAMHWVRQAPGKGLEWVAFIWFDGSNERYADSVKGRFTITRDNPKNTLYLQMNSLRVEDTAVYYCVRRGGSILTGFHLDYWGQGTLVTVSS
VL: ELTQSPSSLSASVGDRVTITCRASQGIRDDLGWYQQKPGKAPKRLIYAASNLQSGVPSRFSGGGSGTEFTLTISSLQPEDFATYYCLQHNSYPLTFGGGTKVEIKR

Each binder was assayed against T1, recombinant gp120 III-B (HIV-1 III-B, UniProt P04578 33-511) (assay: ELISA on gp120 III-B).
T1 construct: domain: gp120; also called gp120 III-B (LAI); HIV-1 gp120
Protocol: Soluble Fabs from each resulting HC/LC pair were tested for binding to gp120 Ill-B and BSA in ELISA a s above. […] Soluble Fabs from each mutant were tested for binding to gp120 III-B and BSA in ELISA as above.

Binder | binding result
Fab S8 HCDR3 mutant Arg95Asp (Fab, V domains shown) VH: LESGGGLVKPGGSLRLSCAASGFTFSSYAMHWVRQAPGKGLEWVAFIWFDGSNERYADSVKGRFTITRDNPKNTLYLQMNSLRVEDTAVYYCVRDGGSILTGFHLDYWGQGTLVTVSS VL: ELTQSPSSLSASVGDRVTITCRASQGIRDDLGWYQQKPGKAPKRLIYAASNLQSGVPSRFSGGGSGTEFTLTISSLQPEDFATYYCLQHNSYPLTFGGGTKVEIKR | no binding
Fab S20 HCDR3 mutant Arg95Gly (Fab, V domains shown, See note of m21) VH: LESGGGVVQPGRSLRLSCSASGFSFRDYAMHWVRQAPGKGLEWVAFIWFDGSNERYADSVKGRFTITRDNPKNTLYLQMNSLRVEDTAVYYCVRGGGSILTGFHLDYWGQGTLVTVSS VL: ELTQSPSSLSASVGDRVTITCRASQGIRDDLGWYQQKPGKAPKRLIYAASNLQSGVPSRFSGGGSGTEFTLTISSLQPEDFATYYCLQHNSYPLTFGGGTKVEIKR | no binding
Fab S8 HCDR3 mutant Arg95Pro (Fab, V domains shown) VH: LESGGGLVKPGGSLRLSCAASGFTFSSYAMHWVRQAPGKGLEWVAFIWFDGSNERYADSVKGRFTITRDNPKNTLYLQMNSLRVEDTAVYYCVRPGGSILTGFHLDYWGQGTLVTVSS VL: ELTQSPSSLSASVGDRVTITCRASQGIRDDLGWYQQKPGKAPKRLIYAASNLQSGVPSRFSGGGSGTEFTLTISSLQPEDFATYYCLQHNSYPLTFGGGTKVEIKR | no binding
Fab S20 HCDR3 mutant Arg95Asp (Fab, V domains shown, The text names only S2095K for S20) VH: LESGGGVVQPGRSLRLSCSASGFSFRDYAMHWVRQAPGKGLEWVAFIWFDGSNERYADSVKGRFTITRDNPKNTLYLQMNSLRVEDTAVYYCVRDGGSILTGFHLDYWGQGTLVTVSS VL: ELTQSPSSLSASVGDRVTITCRASQGIRDDLGWYQQKPGKAPKRLIYAASNLQSGVPSRFSGGGSGTEFTLTISSLQPEDFATYYCLQHNSYPLTFGGGTKVEIKR | no binding
Fab S20 HCDR3 mutant Arg95Pro (Fab, V domains shown, See note of m21) VH: LESGGGVVQPGRSLRLSCSASGFSFRDYAMHWVRQAPGKGLEWVAFIWFDGSNERYADSVKGRFTITRDNPKNTLYLQMNSLRVEDTAVYYCVRPGGSILTGFHLDYWGQGTLVTVSS VL: ELTQSPSSLSASVGDRVTITCRASQGIRDDLGWYQQKPGKAPKRLIYAASNLQSGVPSRFSGGGSGTEFTLTISSLQPEDFATYYCLQHNSYPLTFGGGTKVEIKR | no binding
Fab S8 HCDR3 mutant Arg95Gly (Fab, V domains shown) VH: LESGGGLVKPGGSLRLSCAASGFTFSSYAMHWVRQAPGKGLEWVAFIWFDGSNERYADSVKGRFTITRDNPKNTLYLQMNSLRVEDTAVYYCVRGGGSILTGFHLDYWGQGTLVTVSS VL: ELTQSPSSLSASVGDRVTITCRASQGIRDDLGWYQQKPGKAPKRLIYAASNLQSGVPSRFSGGGSGTEFTLTISSLQPEDFATYYCLQHNSYPLTFGGGTKVEIKR | no binding

What follows are binders tested against gp120 of HIV-1 MN strain (HIV-1 MN, UniProt P05877 32-513) (assay: cell-based or functional assay).

Binder | % neutralisation, neutralisation plaque assay (NPA) in MT-4 cells | % neutralisation, infectivity reduction assay (IRA) in MT-2 cells
Fab S20 (Fab, V domains shown) VH: LESGGGVVQPGRSLRLSCSASGFSFRDYAMHWVRQAPGKGLEWVAFIWFDGSNERYADSVKGRFTITRDNPKNTLYLQMNSLRVEDTAVYYCVRRGGSILTGFHLDYWGQGTLVTVSS VL: ELTQSPSSLSASVGDRVTITCRASQGIRDDLGWYQQKPGKAPKRLIYAASNLQSGVPSRFSGGGSGTEFTLTISSLQPEDFATYYCLQHNSYPLTFGGGTKVEIKR | 90 % neutralisation at 20 µg/ml | 
B1 | 90 % neutralisation at 20 µg/ml | 50 % neutralisation at 1 µg/ml and > 90 % neutralisation at 10 µg/ml

Each binder was assayed against gp120 of HIV-1 RF strain (HIV-1 RF, UniProt P04579 32-519) (assay: cell-based or functional assay).

Binder | % neutralisation, infectivity reduction assay (IRA) in MT-2 cells
B1 | 50 % neutralisation at 1 µg/ml and > 90 % neutralisation at 10 µg/ml

What follows are binders tested against gp120 of HIV-1 SF-2 strain (HIV-1 SF-2, UniProt P03378 32-509) (assay: cell-based or functional assay).

Binder | % neutralisation, infectivity reduction assay (IRA) in MT-2 cells
B1 | 50 % neutralisation at 1 µg/ml and > 90 % neutralisation at 10 µg/ml

Each binder was assayed against B1 (assay: phage display panning on coated Fab S8, round 1, 12-mer library, 1 clone; clone not tested singly).

Binder | binding result
SGLDGMHVNSPW [peptide of phage clone 1r1] | binds
QVMRMMPNGVYC [peptide of phage clone 1r3] | binds
HDEFVWISIWEP [peptide of phage clone 1r5] | binds
WTTNFADPPSST [peptide of phage clone 1r6] | binds
LFQKQIESPWRS [peptide of phage clone 1r10] | binds
HTRVLPSTAMTL [peptide of phage clone 1r9] | binds
FPASMPGLLLRV [peptide of phage clone 1r2] | binds
SSCAAFWSKARP [peptide of phage clone 1r7] | binds
CLSSNSSPPPRP [peptide of phage clone 1r8] | binds
QDRALITPLDQT [peptide of phage clone 1r4] | binds

Each binder was assayed against B1 (assay: phage display panning on coated Fab S8, round 2, 12-mer library, 1 clone; clone not tested singly).

Binder | binding result
HGHPLKTNTHRS [peptide of phage clone 2r3] | binds
MPNPRQNPPPPL [peptide of phage clone 2r4] | binds
HTKCSDASCPLI [peptide of phage clone 2r1] | binds
NFQTPDRTQSNL [peptide of phage clone 2r5] | binds
FYTPTMHSYGIQ [peptide of phage clone 2r6] | binds
NYFQQPPERHSS [peptide of phage clone 2r10] | binds
TTGDHRAFWLGG [peptide of phage clone 2r9] | binds
SVSPNMRMLHWW [peptide of phage clone 2r7] | binds

The binders below were run against B1 (assay: phage display panning on coated Fab S8, round 3, 12-mer library, 1 clone; clone not tested singly).

Binder | binding result
HASTPSSPWSRP [peptide of phage clone 3r7] | binds
HIETLLPAPELS [peptide of phage clone 3r3] | binds
GTTQNAMSLARL [peptide of phage clone 3r5] | binds
MQSQLYRDSPRG [peptide of phage clone 3r9] | binds
SAKPSYQPYAQP [peptide of phage clone 3r1] | binds
KAPIPSSIPGFR [peptide of phage clone 3r4] | binds
QPTTPFFDWDTH [peptide of phage clone 3r6] | binds
LPNATKLAPISP [peptide of phage clone 3r10] | binds

What follows are binders tested against B1 (assay: phage display panning on coated Fab S8, round 4, 12-mer library, 1 clone; clone not tested singly).

Binder | binding result
TMQPYKSWWSSK [peptide of phage clone 4r10] | binds
SASTPSSPWSRP [peptide of phage clone 4r17] | binds
ADVMLHSKHVQM [peptide of phage clone 4r15] | binds
WFKPPQTPLTLM [peptide of phage clone 4r5] | binds
TAMNLGPALFRT [peptide of phage clone 4r3] | binds

The binders below were run against B1 (assay: phage display panning on coated Fab S8, round 4, 7-mer library Ph.D.-C7, 2 clones; clone not tested singly).

Binder | binding result
SAMEAPP (also called 4c7) [peptide of phage clone c72R4] | binds
